Consider 42 molecules from US20210388087A1 (Chugai, published 2021).

T1: Human CD3eg linker (human)
T1 construct: single-chain construct; also called recombinant human CD3
T1 chain: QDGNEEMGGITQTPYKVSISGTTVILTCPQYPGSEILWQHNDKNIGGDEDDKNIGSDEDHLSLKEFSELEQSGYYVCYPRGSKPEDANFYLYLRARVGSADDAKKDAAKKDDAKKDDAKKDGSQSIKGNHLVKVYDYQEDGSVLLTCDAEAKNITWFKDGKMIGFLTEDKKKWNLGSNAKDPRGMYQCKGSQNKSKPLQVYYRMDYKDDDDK

B1: dBBDu183H F100gH/dBBDu072L (antibody, name in Kabat numbering, V domains shown)
VH: QVQLVESGGGLVQPGRSLRLSCAASGFTFSNAWMHWVRQAPGKGLEWVAQIKDKGNAYAAYYAPSVKGRFTISRDDSKNSIYLQMNSLKTEDTAVYYCHYVHYASASTVLPAHGVDAWGQGTTVTVSS
VL: DIVMTQSPLSLPVTPGEPASISCQASQELVHMNRNTYLHWYQQKPGQAPRLLIYKVSNRFPGVPDRFSGSGSGTDFTLKISRVEAEDVGVYYCAQGTSVPFTFGQGTKLEIK
B2: dBBDu183H G65F/dBBDu072L (antibody, name in Kabat numbering, V domains shown)
VH: B1 VH with G68F, H113F
VL: B1 VL
B3: dBBDu183H F100gV/dBBDu072L (antibody, name in Kabat numbering, V domains shown)
VH: B1 VH with H113V
VL: B1 VL
B4: dBBDu183H G100hF/dBBDu072L (antibody, name in Kabat numbering, V domains shown)
VH: B1 VH with H113F, G114F
VL: B1 VL
B5: dBBDu183H H93G/dBBDu072L (antibody, name in Kabat numbering, V domains shown)
VH: B1 VH with H99G, H113F
VL: B1 VL
B6: dBBDu183H G65T/dBBDu072L (antibody, name in Kabat numbering, V domains shown)
VH: B1 VH with G68T, H113F
VL: B1 VL
B7: dBBDu183H G65W/dBBDu072L (antibody, name in Kabat numbering, V domains shown)
VH: B1 VH with G68W, H113F
VL: B1 VL
B8: dBBDu183H G100hR/dBBDu072L (antibody, name in Kabat numbering, V domains shown)
VH: B1 VH with H113F, G114R
VL: B1 VL
B9: dBBDu183H H93N/dBBDu072L (antibody, name in Kabat numbering, V domains shown)
VH: B1 VH with H99N, H113F
VL: B1 VL
B10: dBBDu183H G100hD/dBBDu072L (antibody, name in Kabat numbering, V domains shown)
VH: B1 VH with H113F, G114D
VL: B1 VL
B11: dBBDu183H G100hS/dBBDu072L (antibody, name in Kabat numbering, V domains shown)
VH: B1 VH with H113F, G114S
VL: B1 VL
B12: dBBDu183H H93E/dBBDu072L (antibody, name in Kabat numbering, V domains shown)
VH: B1 VH with H99E, H113F
VL: B1 VL
B13: dBBDu183H G100hK/dBBDu072L (antibody, name in Kabat numbering, V domains shown)
VH: B1 VH with H113F, G114K
VL: B1 VL
B14: dBBDu183H G65N/dBBDu072L (antibody, name in Kabat numbering, V domains shown)
VH: B1 VH with G68N, H113F
VL: B1 VL
B15: dBBDu183H G100hY/dBBDu072L (antibody, name in Kabat numbering, V domains shown)
VH: B1 VH with H113F, G114Y
VL: B1 VL
B16: dBBDu183H H93F/dBBDu072L (antibody, name in Kabat numbering, V domains shown)
VH: B1 VH with H99F, H113F
VL: B1 VL
B17: dBBDu183H G65R/dBBDu072L (antibody, name in Kabat numbering, V domains shown)
VH: B1 VH with G68R, H113F
VL: B1 VL
B18: dBBDu183H G65Q/dBBDu072L (antibody, name in Kabat numbering, V domains shown)
VH: B1 VH with G68Q, H113F
VL: B1 VL
B19: dBBDu183H G100hN/dBBDu072L (antibody, name in Kabat numbering, V domains shown)
VH: B1 VH with H113F, G114N
VL: B1 VL
B20: dBBDu183H F100gK/dBBDu072L (antibody, name in Kabat numbering, V domains shown)
VH: B1 VH with H113K
VL: B1 VL
B21: dBBDu183H G100hW/dBBDu072L (antibody, name in Kabat numbering, V domains shown)
VH: B1 VH with H113F, G114W
VL: B1 VL
B22: dBBDu183H G100hQ/dBBDu072L (antibody, name in Kabat numbering, V domains shown)
VH: B1 VH with H113F, G114Q
VL: B1 VL
B23: dBBDu183H G65S/dBBDu072L (antibody, name in Kabat numbering, V domains shown)
VH: B1 VH with G68S, H113F
VL: B1 VL
B24: dBBDu183H H93K/dBBDu072L (antibody, name in Kabat numbering, V domains shown)
VH: B1 VH with H99K, H113F
VL: B1 VL
B25: dBBDu183H F100gT/dBBDu072L (antibody, name in Kabat numbering, V domains shown)
VH: B1 VH with H113T
VL: B1 VL
B26: dBBDu183H G100hT/dBBDu072L (antibody, name in Kabat numbering, V domains shown)
VH: B1 VH with H113F, G114T
VL: B1 VL
B27: dBBDu183H F100gR/dBBDu072L (antibody, name in Kabat numbering, V domains shown)
VH: B1 VH with H113R
VL: B1 VL
B28: dBBDu183H H93D/dBBDu072L (antibody, name in Kabat numbering, V domains shown)
VH: B1 VH with H99D, H113F
VL: B1 VL
B29: dBBDu183H G65K/dBBDu072L (antibody, name in Kabat numbering, V domains shown)
VH: B1 VH with G68K, H113F
VL: B1 VL
B30: dBBDu183H G65Y/dBBDu072L (antibody, name in Kabat numbering, V domains shown)
VH: B1 VH with G68Y, H113F
VL: B1 VL
B31: dBBDu183H G65E/dBBDu072L (antibody, name in Kabat numbering, V domains shown)
VH: B1 VH with G68E, H113F
VL: B1 VL
B32: dBBDu183H F100gQ/dBBDu072L (antibody, name in Kabat numbering, V domains shown)
VH: B1 VH with H113Q
VL: B1 VL
B33: dBBDu183H F100gY/dBBDu072L (antibody, name in Kabat numbering, V domains shown)
VH: B1 VH with H113Y
VL: B1 VL
B34: dBBDu183H G65D/dBBDu072L (antibody, name in Kabat numbering, V domains shown)
VH: B1 VH with G68D, H113F
VL: B1 VL
B35: dBBDu183H G100hV/dBBDu072L (antibody, name in Kabat numbering, V domains shown)
VH: B1 VH with H113F, G114V
VL: B1 VL
B36: dBBDu183H G65H/dBBDu072L (antibody, name in Kabat numbering, V domains shown)
VH: B1 VH with G68H, H113F
VL: B1 VL
B37: dBBDu183H G65V/dBBDu072L (antibody, name in Kabat numbering, V domains shown)
VH: B1 VH with G68V, H113F
VL: B1 VL
B38: dBBDu183H G100hH/dBBDu072L (antibody, name in Kabat numbering, V domains shown)
VH: B1 VH with H113F, G114H
VL: B1 VL
B39: dBBDu183H F100gN/dBBDu072L (antibody, name in Kabat numbering, V domains shown)
VH: B1 VH with H113N
VL: B1 VL
B40: dBBDu183H F100gS/dBBDu072L (antibody, name in Kabat numbering, V domains shown)
VH: B1 VH with H113S
VL: B1 VL
B41: dBBDu183H G100hE/dBBDu072L (antibody, name in Kabat numbering, V domains shown)
VH: B1 VH with H113F, G114E
VL: B1 VL
B42: dBBDu183H F100gW/dBBDu072L (antibody, name in Kabat numbering, V domains shown)
VH: B1 VH with H113W
VL: B1 VL

Residue numbers refer to the chain shown, from its start. In names and notes the source's numbering stands.

The experiment deals with T1, Human CD3eg linker. Kind of experiment: SPR, vs unmutated H183/L072.
Take B1: the “fold change of affinity” value turned out to be 1.8 fold.

Regarding B2, the “fold change of affinity” value is 0.9 fold.

Take B3: the “fold change of affinity” value was 1.2 fold. With B4, the “fold change of affinity” value came to 0.4 fold.

Consider B5, for which the “fold change of affinity” value came to 0 fold.

As to B6, the “fold change of affinity” value was determined as 1 fold. Under B7 stands 1 fold; under B8, 0.4 fold. Turning to B9, the “fold change of affinity” value was determined as 0 fold. B10: the “fold change of affinity” value was 0.5 fold. Consider B11, for which the “fold change of affinity” value was found to be 1.1 fold. On to B12, for which the “fold change of affinity” value worked out at 0 fold. On to B13, for which the “fold change of affinity” value is 0.3 fold. Under B14 stands 0.9 fold. Consider B15, for which the “fold change of affinity” value is 0 fold. On to B16, for which the “fold change of affinity” value came out at 0 fold. For the molecule B17, the “fold change of affinity” value is 1 fold. For the molecule B18, the “fold change of affinity” value worked out at 1 fold. As for B19, the “fold change of affinity” value worked out at 0.8 fold. Then B20, with 1.7 fold. Then B21, with 0 fold; and B22, with 0.4 fold; and B23, with 1 fold. Turning to B24, the “fold change of affinity” value came to 0.2 fold. Take B25: the “fold change of affinity” value is 1.3 fold. For the molecule B26, the “fold change of affinity” value was found to be 2.3 fold. On to B27, for which the “fold change of affinity” value amounted to 3.4 fold. For the molecule B28, the “fold change of affinity” value was found to be 0 fold.

With B29, the “fold change of affinity” value is 1.1 fold. Take B30: the “fold change of affinity” value was 1 fold. Under B31 stands 1 fold; under B32, 1.3 fold. Consider B33, for which the “fold change of affinity” value turned out to be 1.2 fold. For B34, the “fold change of affinity” value worked out at 1 fold. For the molecule B35, the “fold change of affinity” value came to 3.4 fold. Under B36 stands 0.9 fold; under B37, 1.2 fold; under B38, 1.5 fold. Under B39 stands 0.9 fold; under B40, 1.4 fold. Then B41, with 0.5 fold. Take B42: the “fold change of affinity” value came out at 0.9 fold.
